# Measurements reported in the RNAGym collection of RNA variant scans (doi:10.1073/pnas.2313332121).
# Fewer inactive variants are shown than the library holds.
# B1: TPR 5TU (parent)
# chain: GGAUCUUCUCGAUCUAACAAAAAAGACAAAUCUGCCACAAAGCUUGAGAGCAUCUUCGGAUGCAGAGGCGGCAGCCUUCGGUGGCGCGAUAGCGCCAACGUUCUCAACUAUGACACGCAAAACGCGUGCUCCGUUGAAUGGAGUUUAUCAUG
# Variants of: B1
# Test: polymerase ribozyme fitness, log enrichment relative to wild type (log ratio); higher = more active; in vitro selection for triplet polymerase activity
# How it was run: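 For each subunit of a heterodimeric triplet polymerase ribozyme, a mutant library was built by PCR and transcribed, then taken through a single in vitro selection round in triplicate. Selection involved annealing to a biotinylated primer, the partner subunit and triplets, incubation frozen at −7 °C, gel excision of extended constructs, capture on streptavidin beads and RT-PCR. Genotypes were retained after Illumina sequencing of inputs and outputs only with ≥10 input reads and ≥1 read in each output. Fitness is defined as the logarithm of a genotype's enrichment relative to wild-type enrichment, using inverse-variance-weighted averages across replicates, with the logarithm taken to base 2.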
row,Variant,polymerase ribozyme fitness (log ratio)
1,G59U G86A C118G,-2.48
2,G62C G83A,-2.25
3,U61A C85U,-1.28
4,U61A C85A,-3.12
5,U61A C85G,≤ -4.2
6,A60U C85U U148C,-3.17
7,G59U C87U C108U C125A,-3.4
8,U61A C85U C87A C118G U134A,≤ -4.2
9,A60G A150G,-0.0266
10,A60U C93U U151G,≤ -4.2
11,U61A C96G G117A,-2.2
12,U61A C96G U109A,-3.32
13,U61C A73U A91U,≤ -4.2
14,U61A A89U,-0.941
15,A60U U139A A150U,≤ -4.2
16,A60U C99U C118U,-2.07
17,A60U C85U G88U C99U,≤ -4.2
18,U61C C76A,-2.59
19,A60G G81A A97U C99U,-1.35
20,A60C U82G G84A,-1.71
21,A60U C85G C96U C105U,≤ -4.2

row,Variant,polymerase ribozyme fitness (log ratio)
1,U61A C129U,-3.55
2,A60G G70C U77A U135G,≤ -4.2
3,U61C U82C C116U U134C,-2.24
4,A60U C87G,≤ -4.2
5,A60G G94A U102A C123G,-1.46
6,G62A A121G,-0.384
7,A60C G83U A121U,-2.35
8,U61A C72U,-3.66
9,U61C C96A A121G,-2.74
10,G59U C99U U104G G128U U134A G136U A138G,≤ -4.2
11,G62A C85A A121U U134C A137G,-3.02
12,G62A C85A U151C,≤ -4.2
13,A60G A73U C93U,-1.38
14,U61A C69A C85A U139A C149G,≤ -4.2
15,A60U G136C U139G,-3.71
16,A60G G117C G124U,0.122
17,G59U G68A G83A A89U G94U G128U,≤ -4.2
18,A60G C129G,-2.25
19,U61A A137C G140A,-4.19
20,G62C A120G,-0.94
21,U61A G94U A106G,-2.71

row,Variant,polymerase ribozyme fitness (log ratio)
1,G59U U78G C79A C87U U109G A110U,-3.99
2,A60G,0.0111
3,A60U,-0.665
4,A60C,-0.597
5,U61A C85A G141C,-2.36
6,U61C A64G,≤ -4.2
7,U61G C85A,-2.29
8,A60U G70A C85U G86A,≤ -4.2
9,A60G C87U U101A,-0.517
10,U61A G86U,-2.99
11,A60G U90G U145A,≤ -4.2
12,A60U G143A,-1.07
13,A60G C76A A91G C95U A107C,≤ -4.2
14,U61A G126C,-0.89
15,G62C A115C,-1.06
16,G59U C75U C76U C93G A115U,≤ -4.2
17,U61C A98U C103G A115G C131U,≤ -4.2
18,U61A G92U,-3.41
19,A60C A97U,-1.64
20,A60C U61G G92A A110U,-3.93
21,G59U C93A G152U,≤ -4.2

row,Variant,polymerase ribozyme fitness (log ratio)
1,A60G G80C G140A G141U,≤ -4.2
2,U61A C105U,-1.02
3,A60G G92A C96U A121C,-2.75
4,G59U G94U C105U G124U G143C,-3.65
5,U61G G92A,≤ -4.2
6,U61A A97C,-1.48
7,A60G A89G,-0.778
8,A60C U148G A150U,≤ -4.2
9,A60C G67C A73G G81A C114A G136C,≤ -4.2
10,G62C C85A,-3.75
11,U61A C149A,≤ -4.2
12,U61A U144C,-2.19
13,U61C U104G G126C,-2.04
14,A60G G117A,0.434
15,A60U C85A U145A,-1.8
16,U61A G65C C85A C96G U151C,≤ -4.2
17,A60U U127G,-3.08
18,A60C U82G G86A U146G,-3.33
19,U61A G86A A122G,-2.67
20,G62A C87G U90A C96U C99U U148G,≤ -4.2
